This note sets out measurements from patent US20250326840A1 (QURE BIOTECHNOLOGY SHANGHAI, published 2025).

Read-outs that look alike come from different tables or passages of the source.

Assay [1] deals with T1, PD-L1-his (QPP09) (human, UniProt Q9NZQ7 19-239, limits assumed).
T1 construct: also called human PD-L1; human PD-L1 recombinant protein
Briefly: SPR, Biacore 8K. (In general: Surface plasmon resonance follows binding to a sensor surface in real time, without labels.)

Assay [2] deals with T2, QP098 (cyno SIRPα (I7G9Z7) ECD(E31-R369)-flag-his) (cynomolgus).
T2 construct: the construct carries flag and his tags; also called cynoSIRPα (ECD); cynomolgus SIRPα
T2 chain: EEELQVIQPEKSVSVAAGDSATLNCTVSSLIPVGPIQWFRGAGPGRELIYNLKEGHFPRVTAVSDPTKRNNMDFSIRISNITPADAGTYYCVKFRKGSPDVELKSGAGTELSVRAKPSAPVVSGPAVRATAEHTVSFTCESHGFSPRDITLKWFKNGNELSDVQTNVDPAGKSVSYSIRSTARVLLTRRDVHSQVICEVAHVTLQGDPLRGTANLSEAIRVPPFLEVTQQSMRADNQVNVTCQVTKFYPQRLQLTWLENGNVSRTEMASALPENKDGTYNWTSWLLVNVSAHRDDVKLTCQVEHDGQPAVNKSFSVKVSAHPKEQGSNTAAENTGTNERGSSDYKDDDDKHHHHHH
Description: SPR, Biacore 8K.

In assay [3] the target is T3, QP271 (rhesus SIRPα1-flag-his T-557-28) (rhesus monkey).
T3 construct: also called rhesus monkey SIRPα (QP271); monkeySIRPα1-flag-his
T3 chain: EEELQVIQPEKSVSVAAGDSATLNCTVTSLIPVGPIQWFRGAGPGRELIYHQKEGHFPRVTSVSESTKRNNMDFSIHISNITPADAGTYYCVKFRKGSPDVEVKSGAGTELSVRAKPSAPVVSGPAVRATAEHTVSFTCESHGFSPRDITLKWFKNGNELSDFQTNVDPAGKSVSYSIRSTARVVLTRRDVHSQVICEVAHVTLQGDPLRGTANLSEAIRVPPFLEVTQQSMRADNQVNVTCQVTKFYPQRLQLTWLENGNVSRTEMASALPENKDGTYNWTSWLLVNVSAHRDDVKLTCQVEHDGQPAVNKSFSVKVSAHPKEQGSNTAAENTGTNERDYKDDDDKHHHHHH
Briefly: SPR, Biacore 8K.

Assay [4] deals with T1, PD-L1-his (QPP09). Description: SPR, Biacore 8K. The source holds these as a separate data set.
The target of assay [5] is T4, Rhesus PD-L1 (rhesus monkey, UniProt F6PJN1 19-239).
T4 construct: also called rhesus monkey PD-L1
Description: SPR, Biacore 8K.

The target in assay [6] is T5, human PD-L1 on HCC827 cells (human, UniProt Q9NZQ7 19-290).
T5 construct: whole, on cells; also called HCC827 cells naturally expressing human PD-L1
Description: FACS on HCC827 cells.

The target of assay [7] is T6, PD-L1-mouse Fc protein (human, UniProt Q9NZQ7 19-239, limits assumed). Briefly: competitive ELISA, CD80 coated, PD-L1-mouse Fc.
Assay [8] addresses T6, PD-L1-mouse Fc protein. Briefly: competitive ELISA, PD-1 coated, PD-L1-mouse Fc. Background: ELISA stands for enzyme-linked immunosorbent assay.
For assay [9], the target named is T1, PD-L1-his (QPP09). Description: ELISA, PD-L1 captured by coated anti-HIS antibody.
Assay [10] has as its target QP003 (PDL1-his). Briefly: ELISA, QP003 (PDL1-his) captured on coated anti-his, anti-hFc detection; unit from the x axis Log(Conc.(nM)).
Assay [11] concerns the target T6, PD-L1-mouse Fc protein. Description: blocking ELISA: QP1138 (PD1-FC) coated, PDL1-mouse FC mixed with the antibody, HRP anti-mouse IgG; blocked partner: PD-1; unit from the x axis Log(Conc.(nM)).
The target in assay [12] is T7, QP009 (SIRPα) (Homo sapiens (Human)).
T7 construct: Entry includes a C-terminal flag-his tag as printed; also called recombinant protein QP009
T7 chain: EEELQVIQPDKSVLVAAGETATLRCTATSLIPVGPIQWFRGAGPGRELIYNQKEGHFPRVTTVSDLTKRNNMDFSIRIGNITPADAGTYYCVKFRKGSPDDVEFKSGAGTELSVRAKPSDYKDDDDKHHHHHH
Description: ELISA of hybridoma supernatant on QP009.

In assay [13] the target is T8, QP094 (human SIRPα V1 ECD(E31-R370)-flag-his) (human, UniProt P78324 31-370).
T8 construct: the construct carries flag and his tags; also called SIRPαV1-flag-his; SIRPαV1-his (QP094)
Briefly: SPR, Biacore T200.

Assay [14] concerns the target T9, QP096 (human SIRPα V2 ECD(E31-R370)-flag-his) (human).
T9 construct: the construct carries flag and his tags; also called SIRPαV2-Flag-his; Human SIRPα V2 (QP096)
Briefly: SPR, Biacore T200.

Assay [15] concerns the target T10, QP002 (biotinylated in the blocking assays, sites not given).
T10 construct: also called SIRPα-FC; Biotin-QP002
Briefly: blocking ELISA: CD47 FC (QP001) coated, biotin SIRPα-FC (QP002) mixed with the antibody, HRP-streptavidin; blocked ligand: CD47; unit from the x axis Log(Conc.(nM)).

T1 sequence (Q9NZQ7 19-239 limits assumed): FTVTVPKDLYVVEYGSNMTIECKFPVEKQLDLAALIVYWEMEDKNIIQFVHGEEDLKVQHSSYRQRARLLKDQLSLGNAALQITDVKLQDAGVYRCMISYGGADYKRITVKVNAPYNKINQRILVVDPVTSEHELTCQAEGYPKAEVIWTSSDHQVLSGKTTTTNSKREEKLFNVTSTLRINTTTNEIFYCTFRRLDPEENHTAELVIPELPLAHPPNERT
T6 sequence (Q9NZQ7 19-239 limits assumed): as above
T5 sequence (Q9NZQ7 19-290): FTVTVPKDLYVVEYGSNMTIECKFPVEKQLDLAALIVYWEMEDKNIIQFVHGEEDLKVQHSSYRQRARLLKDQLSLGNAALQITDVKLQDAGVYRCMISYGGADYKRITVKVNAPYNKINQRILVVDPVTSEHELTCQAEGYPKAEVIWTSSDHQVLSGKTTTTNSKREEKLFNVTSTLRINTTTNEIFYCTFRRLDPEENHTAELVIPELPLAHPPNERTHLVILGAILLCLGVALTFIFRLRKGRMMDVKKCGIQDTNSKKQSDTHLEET
Sequence of QP003 (PDL1-his) (chain, as listed by the source limits assumed): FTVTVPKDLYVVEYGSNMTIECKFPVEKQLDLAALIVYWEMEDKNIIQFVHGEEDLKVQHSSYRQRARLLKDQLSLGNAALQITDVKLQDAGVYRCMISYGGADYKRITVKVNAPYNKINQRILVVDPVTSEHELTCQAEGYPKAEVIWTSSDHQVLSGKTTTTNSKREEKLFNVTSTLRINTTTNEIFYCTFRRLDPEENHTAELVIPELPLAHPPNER

B1: Q-1801 (bispecific antibody, human IgG1, kappa, L234A L235A)
heavy: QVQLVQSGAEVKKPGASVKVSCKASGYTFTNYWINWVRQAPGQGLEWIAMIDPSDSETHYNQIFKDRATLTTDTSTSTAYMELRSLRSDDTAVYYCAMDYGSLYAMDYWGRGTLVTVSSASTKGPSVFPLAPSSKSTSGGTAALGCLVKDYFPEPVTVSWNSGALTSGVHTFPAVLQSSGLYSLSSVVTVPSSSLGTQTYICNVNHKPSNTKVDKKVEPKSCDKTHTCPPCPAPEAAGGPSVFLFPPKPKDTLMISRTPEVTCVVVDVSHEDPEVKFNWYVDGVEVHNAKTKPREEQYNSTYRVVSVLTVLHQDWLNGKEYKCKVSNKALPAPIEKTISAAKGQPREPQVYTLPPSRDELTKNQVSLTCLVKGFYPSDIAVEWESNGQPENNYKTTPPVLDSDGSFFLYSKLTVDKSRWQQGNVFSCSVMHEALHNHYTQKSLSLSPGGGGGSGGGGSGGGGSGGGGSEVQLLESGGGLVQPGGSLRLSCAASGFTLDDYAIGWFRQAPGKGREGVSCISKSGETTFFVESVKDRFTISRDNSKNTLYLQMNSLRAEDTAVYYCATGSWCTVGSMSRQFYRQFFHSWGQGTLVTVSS
light: DIVLTQSPDSLAVSLGERATINCRASQSVRSSGYNWIFWYQQKPGQPPKLLIYLASNRDSGVPDRFSGSGSGTDFTLTISSLQAEDVAVYYCQHSRELPTFGQGTKLEIKRTVAAPSVFIFPPSDEQLKSGTASVVCLLNNFYPREAKVQWKVDNALQSGNSQESVTEQDSKDSTYSLSSTLTLSKADYEKHKVYACEVTHQGLSSPVTKSFNRGEC
notes: Anti-SIRPα VH-CH1-Fc(L234A, L235A, K338A)-(G4S)4-anti-PD-L1 VHH heavy chain; kept as one molecule; also called CHO44; QP32820279
Broadly, the Kd is a measure of binding affinity in units of concentration. Low readings indicate tighter binding, high ones weaker binding. The term koff denotes the first-order rate constant of dissociation. A lower koff goes with slow dissociation. As usually defined, the kon is the second-order rate constant of association. Usually EC50 stands for the concentration that produces a half-maximal response. A high value points to a need for much substance. As a reminder, the IC50 is the concentration that inhibits the measured activity by half. For the molecule B1, the Kd in assay [1] came to 0.429 nM; in assay [2] it was 2.14 nM; in [3], 0.522 nM; in assay [4], 0.431 nM; in [5], 0.499 nM. In addition, the koff in [1] stood at 0.000433 s⁻¹; in assay [2] it was 0.0117 s⁻¹; in assay [3] it was 0.00303 s⁻¹; in assay [4], 0.000433 s⁻¹; in assay [5], 0.000779 s⁻¹. In addition, the kon in assay [1] is 1.01e+06 M⁻¹ s⁻¹; in assay [2], 5.46e+06 M⁻¹ s⁻¹; in assay [3], 5.81e+06 M⁻¹ s⁻¹; in assay [4], 1.01e+06 M⁻¹ s⁻¹; in [5] it was 1.56e+06 M⁻¹ s⁻¹. Besides, the concentration for a half-maximal effect (EC50) in assay [6] came to 0.142 nM; in assay [9], 0.122 nM; in assay [10], 0.0307 nM. The IC50 is 0.742 nM in assay [7], 0.904 nM in assay [8] and 0.382 nM in assay [11].

B2: 71C10 (antibody, V domains shown)
VH: QVQLQQPGTELVRPGASVKLSCKASGYTFTNYWINWVKQRPGQGLEWIAMIDPSDSETHYNQIFKDKATLTVDKSSNTAYMQLSSLTSGDSAVYYCAMDYGSLYAMDYWGRGTSVTVSS
VL: DIVLTQSPASLAVSLGQRATISCRASKSVSSSGYNYIFWYQQKPGQPPKLLIYLASNLDSGVPARFSGSGSGTDFTLNIHPVEEEDAATYYCQHSRELPTFGGGTKLEIK
notes: Mouse hybridoma antibody tested as culture supernatant; also called hybridoma monoclonal antibody 71C10; single-cell clone 71C10
Turning to B2, the binding result in assay [12] was “binds”.

B3: QP026027 (antibody, human IgG1, kappa)
heavy: not shown
light: QIVLTQSPAIMSASPGEKVTLTCSASSSVSSSYLYWYQQKPGSSPKLWIYSTSNLASGVPARFSGSGSGTSYSLTISSMEAEDAASYFCHQWSSYPRTFGAGTKLELKRTVAAPSVFIFPPSDEQLKSGTASVVCLLNNFYPREAKVQWKVDNALQSGNSQESVTEQDSKDSTYSLSSTLTLSKADYEKHKVYACEVTHQGLSSPVTKSFNRGEC
notes: also called KWAR23 (QP026027); control antibody KWAR23, human IgG1
In [13], B3 yielded a Kd of 5.12 nM, a koff of 0.00465 s⁻¹ and an association rate constant (kon) of 908000 M⁻¹ s⁻¹. Moreover, in assay [14], the dissociation constant (Kd) turned out to be 12.3 nM, the koff was 0.0246 s⁻¹ and the kon was 2.01e+06 M⁻¹ s⁻¹. In addition, in assay [15], the IC50 came to 0.295 nM.
